Laboratory results reported in PMC5909953 (Current biology : CB, 2017).

Target: the molecule itself
Assay: single molecule photobleaching

B1: Kif15-FL-GFP-His6 (natural protein, human, UniProt Q9NS87 1-1388, looked up)
chain: MAPGCKTELRSVTNGQSNQPSNEGDAIKVFVRIRPPAERSGSADGEQNLCLSVLSSTSLRLHSNPEPKTFTFDHVADVDTTQESVFATVAKSIVESCMSGYNGTIFAYGQTGSGKTFTMMGPSESDNFSHNLRGVIPRSFEYLFSLIDREKEKAGAGKSFLCKCSFIEIYNEQIYDLLDSASAGLYLREHIKKGVFVVGAVEQVVTSAAEAYQVLSGGWRNRRVASTSMNRESSRSHAVFTITIESMEKSNEIVNIRTSLLNLVDLAGSERQKDTHAEGMRLKEAGNINRSLSCLGQVITALVDVGNGKQRHVCYRDSKLTFLLRDSLGGNAKTAIIANVHPGSRCFGETLSTLNFAQRAKLIKNKAVVNEDTQGNVSQLQAEVKRLKEQLAELASGQTPPESFLTRDKKKTNYMEYFQEAMLFFKKSEQEKKSLIEKVTQLEDLTLKKEKFIQSNKMIVKFREDQIIRLEKLHKESRGGFLPEEQDRLLSELRNEIQTLREQIEHHPRVAKYAMENHSLREENRRLRLLEPVKRAQEMDAQTIAKLEKAFSEISGMEKSDKNQQGFSPKAQKEPCLFANTEKLKAQLLQIQTELNNSKQEYEEFKELTRKRQLELESELQSLQKANLNLENLLEATKACKRQEVSQLNKIHAETLKIITTPTKAYQLHSRPVPKLSPEMGSFGSLYTQNSSILDNDILNEPVPPEMNEQAFEAISEELRTVQEQMSALQAKLDEEEHKNLKLQQHVDKLEHHSTQMQELFSSERIDWTKQQEELLSQLNVLEKQLQETQTKNDFLKSEVHDLRVVLHSADKELSSVKLEYSSFKTNQEKEFNKLSERHMHVQLQLDNLRLENEKLLESKACLQDSYDNLQEIMKFEIDQLSRNLQNFKKENETLKSDLNNLMELLEAEKERNNKLSLQFEEDKENSSKEILKVLEAVRQEKQKETAKCEQQMAKVQKLEESLLATEKVISSLEKSRDSDKKVVADLMNQIQELRTSVCEKTETIDTLKQELKDINCKYNSALVDREESRVLIKKQEVDILDLKETLRLRILSEDIERDMLCEDLAHATEQLNMLTEASKKHSGLLQSAQEELTKKEALIQELQHKLNQKKEEVEQKKNEYNFKMRQLEHVMDSAAEDPQSPKTPPHFQTHLAKLLETQEQEIEDGRASKTSLEHLVTKLNEDREVKNAEILRMKEQLREMENLRLESQQLIEKNWLLQGQLDDIKRQKENSDQNHPDNQQLKNEQEESIKERLAKSKIVEEMLKMKADLEEVQSALYNKEMECLRMTDEVERTQTLESKAFQEKEQLRSKLEEMYEERERTSQEMEMLRKQVECLAEENGKLVGHQNLHQKIQYVVRLKKENVRLAEETEKLRAENVFLKEKKRSES
For B1, the “stoichiometry N” value was 2.
